{"source": "paper PMC9733425", "about": "(Journal of structural biology, 2022)", "molecular_target": "the molecule itself", "assay": "SEC-MALS", "data": [{"protein": "SAM1 domain of SASH1 (WT human SAM1::6xHis, residues 627-703) (domain or fragment, UniProt O94885 627-703, looked up) RRKGRPPQPKSVEDLLDRINLKEHMPTFLFNGYEDLDTFKLLEEEDLDELNIRDPEHRAVLLTAVELLQEYDSNSDQ", "values": [{"measurement": "stoichiometry N", "result": 4}]}]}
